Patent US20190062427A1 (Alector, published 2019)
Changes are numbered by the printed parent chain. Blank lines part the entries; values can stand above or below the binder they belong to.

What was measured:
[1] = molecular target: T1, Histidine-tagged human Siglec-9 (NovoProtein) (human, UniProt Q9Y336 18-348); assay: BLI ForteBio Octet RED96, mAb on AMC tips, His-tagged Siglec-9 3.13-50 nM; average of two assays
T1 construct: Bought protein; also called Siglec-9-his tagged protein; His-tagged Siglec 9 antigen; not shown: histidine tag
T1 sequence (Q9Y336 18-348 limits assumed): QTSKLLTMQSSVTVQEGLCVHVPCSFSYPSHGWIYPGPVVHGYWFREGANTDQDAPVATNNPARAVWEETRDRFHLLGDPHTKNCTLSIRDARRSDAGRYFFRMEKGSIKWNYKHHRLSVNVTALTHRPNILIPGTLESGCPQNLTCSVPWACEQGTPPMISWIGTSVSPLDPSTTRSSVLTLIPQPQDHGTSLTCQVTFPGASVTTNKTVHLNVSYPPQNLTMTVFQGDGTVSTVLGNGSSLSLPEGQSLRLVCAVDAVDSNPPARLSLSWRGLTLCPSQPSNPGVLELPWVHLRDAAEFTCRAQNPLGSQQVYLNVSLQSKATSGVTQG
Procedure: (§1) Antibodies were captured on anti-mouse IgG Fc capture (AMC) biosensor tips, after which a baseline was run for 60 seconds. A 15 minute association step was performed in a dilution series of His-tagged Siglec 9 antigen, ranging from 3.13 nM to 50 nM, after which dissociation was measured over 60 minutes. Affinity constants (KD) were calculated from the ratio kd/kₐ.

[2] = molecular target: T1, Histidine-tagged human Siglec-9 …; assay: BLI ForteBio Octet RED96, mAb on AMC tips, His-tagged Siglec-9 3.13-50 nM; assay 1; column head prints nM but kd/ka gives M
Procedure: as §1

[3] = molecular target: T1, Histidine-tagged human Siglec-9 …; assay: BLI ForteBio Octet RED96, mAb on AMC tips, His-tagged Siglec-9 3.13-50 nM; assay 2; column head prints nM but kd/ka gives M
Procedure: as §1

[4] = molecular target: T2, human Siglec-9 expressed on human cells (human, UniProt Q9Y336 18-463); assay: flow cytometry on human primary dendritic cells, 10 ug/ml mAb, PE secondary
T2 construct: Endogenous receptor on human primary monocytes, dendritic cells, macrophages, microglia, THP-1 cells and human myeloid cells of humanized mice; also called CD329
T2 sequence (Q9Y336 18-463): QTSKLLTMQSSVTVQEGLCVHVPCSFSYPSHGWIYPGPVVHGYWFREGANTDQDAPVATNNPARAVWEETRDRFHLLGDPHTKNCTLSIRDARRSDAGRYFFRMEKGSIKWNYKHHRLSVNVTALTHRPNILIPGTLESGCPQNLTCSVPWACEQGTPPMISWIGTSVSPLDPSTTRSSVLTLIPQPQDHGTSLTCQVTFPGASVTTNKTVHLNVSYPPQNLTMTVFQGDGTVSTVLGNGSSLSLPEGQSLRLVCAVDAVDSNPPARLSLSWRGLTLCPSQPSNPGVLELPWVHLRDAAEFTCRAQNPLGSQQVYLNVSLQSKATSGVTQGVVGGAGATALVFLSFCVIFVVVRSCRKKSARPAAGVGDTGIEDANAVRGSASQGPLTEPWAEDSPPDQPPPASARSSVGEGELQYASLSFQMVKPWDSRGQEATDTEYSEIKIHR
Procedure: (§2) Initial characterization of Siglec-9 antibodies involved determining their ability to bind Siglec-9 expressed on human primary monocytes, human primary macrophages, human primary dendritic cells, human primary neutrophils, and human primary natural killer (NK) cells. Cells were harvested, plated at 10⁶/ml in a 96 well plate, and incubated in 100ul PBS containing 2% FBS, 2 mM EDTA and 10 μg/ml Mab and Fc blocking reagent for 1 hour in ice. Cells were washed twice and incubated in 100ul PBS containing 2% FBS, 2 mM EDTA and 5 μg/ml PE-conjugated secondary antibody for 30 minutes on ice. Cells were washed twice in cold PBS and analyze by flow cytometry on a BD FACS Canto. Data analysis and calculation of MFI values was performed with FlowJo (TreeStar) software version 10.0.7.
(§3) Binding is compared to an isotype control. […] In Table 5, “Buffer” refers to cells that were treated only with the PBS buffer described supra; “Secondary Ab” refers to cells that were treated only with the PE-conjugated secondary antibody; and “mIgG1,” “mIgG2a,” and “mIgG2b” refer to isotype control antibodies.

[5] = molecular target: T2, human Siglec-9 expressed on human cells; assay: flow cytometry on human primary macrophages, 10 ug/ml mAb, PE secondary
Procedure: as §2, §3

[6] = molecular target: T2, human Siglec-9 expressed on human cells; assay: flow cytometry on human primary monocytes, 10 ug/ml mAb, PE secondary
Procedure: as §2, §3

[7] = molecular target: T2, human Siglec-9 expressed on human cells; assay: cell-based or functional assay
[8] = molecular target: T3, Siglec-9-Fc (R&D Systems, catalog number 1139-SL-050) (human, UniProt Q9Y336 18-348); assay: FACS ligand competition: 25 ug/ml mAb pre-coupled with 25 ug/ml Siglec-9-Fc, binding to sialic acid ligands on U937 cells, anti-human IgG-PE
T3 construct: Bought fusion protein; also called Siglec-9-Fc fusion protein; not shown: human IgG1 Fc
T3 sequence (Q9Y336 18-348 limits assumed): as the sequence (Q9Y336 18-348 limits assumed) above
Procedure: To determine whether Siglec-9 antibodies block binding to sialic acid ligands, U937 cells, which robustly express sialic acid ligands that predominantly bind to Siglec-9, were utilized in a FACS-based protocol. Briefly, 25 μg/ml Siglec-9 antibodies were pre-coupled with 25 μg/ml Siglec-9-Fc (R&D Systems, catalog number 1139-SL-050) for 20 minutes on ice in binding buffer (PBS with 0.25% BSA and 1 mM CaCl₂) in 96-well round bottom plates. […] Cells were pelleted and resuspended in goat anti-human IgG-PE (SouthernBiotech catalog number 2040-09) secondary antibody at 1:2000 dilution in binding buffer for 30 minutes. Cells were then washed three times and analyzed by flow cytometry on a BD FACS Canto. Data were analyzed on FlowJo version 10.0.6 (TreeStar).

[9] = molecular target: T2, human Siglec-9 expressed on human cells; assay: cell-based or functional assay; remark: listed apart in the source
[10] = molecular target: T1, Histidine-tagged human Siglec-9 …; assay: SPR Biacore T200, 25 C, 25 nM mAb captured on anti-mouse IgG CM5 chip, His-tagged Siglec-9 200 nM as analyte, single-concentration 1:1 fit
[11] = molecular target: T1, Histidine-tagged human Siglec-9 …; assay: SPR Biacore T200, 25 C, 25 nM mAb captured on anti-mouse IgG CM5 chip, His-tagged Siglec-9 100 nM as analyte, single-concentration 1:1 fit
Procedure: Affinity constants (KD) were calculated from the ratio kd/kₐ.

B4: anti-Siglec-9 antibody 12B12 (antibody, V domains shown)
VH: EVQLVESGGGLVQPGGSLKLSCAASGFTFSNYGMSWVRQILDKRLELVATINSNGGRTYYPDSVKGRFTISRDNAKNTLYLQMSSLRSEDTAIYYCVTYYRYDSYAMDYWGQGTSVTVSS
VL: DIVLTQSPASLAVSLGQRATISCRASENVDSYGISFMHWYQQKPGQPPKLLIYRASNLESGIPARFSGSGSRTDFTLTINPVEADDVATYYCQQSNEDPWTFGGGTKLEIK
notes: Murine antibody; also called S9-12B12; S9-12B12.2
- Kd [1]: 0.76 nM
- Kd [2]: 0.639 nM
- Kd [3]: 0.879 nM

B5: anti-Siglec-9 antibody 2D5 (antibody, IgG1, V domains shown)
VH: QVQLQQSGPELVKPGASVKISCKASGYAFSSYWMNWVKQRPGKGLEWIGRIYPRDGDTNYNGKFKGKATLTADKSSSTAYMQLSSLTSEDSAVYFCARWLLRFAYWGQGTLVTVSA
VL: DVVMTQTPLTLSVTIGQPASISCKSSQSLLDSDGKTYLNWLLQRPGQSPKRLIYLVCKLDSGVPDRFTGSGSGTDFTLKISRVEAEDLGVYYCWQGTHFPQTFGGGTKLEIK
- % Positive [4]: 34.2%
- MFI [4]: 252
- % Positive [5]: 93.2%
- MFI [5]: 692
- % Positive [6]: 9.1%
- MFI [6]: 145
- Percent Siglec-9 Surface Expression, DCs (% Siglec-9) [7]: 94.3%
- Percent Siglec-9 Surface Expression, Monocytes (% Siglec-9) [7]: 84.4%
- Percent Siglec-9 Surface Expression, THP-1 cells (% Siglec-9) [7]: 81.1%
- Percent Siglec-9-Fc Binding [8]: 97.8%
- Percent Siglec-9 Surface Expression, Macrophages (% Siglec-9) [9]: 94.6%
- Percent Siglec-9 Surface Expression, Microglia (% Siglec-9) [9]: 90.6%
- Kd [11]: 5.1 nM

Other lines, results leading:

- Kd [1]: 0.54 nM
- Kd [2]: 0.532 nM
- Kd [3]: 0.557 nM
B1: anti-Siglec-9 antibody 5C6 (antibody, V domains shown)
VH: EVQLQQSGPELVKPGASVRISCKASGYTFTDYNIHWVKQSQGKSLEWIGYIYPYNGDTGYNQKFQNKATLTVDNSSSTAYMELRSLTSEDSAVYYCANGNYLYYYAMDYWGQGTSVTVSS
VL: DVVMTQTPLSLPVSLGDQVSISCSSSQSLVHSNGNTYLHWYLQKSGQSPKLLIYKVSNRFSGVPDRFRGSGSGTDFTLKISRVEAEDLGVYFCSQNTHVPLTFGAGTKLELK
notes: Murine antibody; also called S9-5C6; S9-5C6.3

- % Positive [4]: 60.5%
- MFI [4]: 331
- % Positive [5]: 94.8%
- MFI [5]: 467
- % Positive [6]: 38.3%
- MFI [6]: 216
- Percent Siglec-9 Surface Expression, DCs (% Siglec-9) [7]: 66.2%
- Percent Siglec-9 Surface Expression, Monocytes (% Siglec-9) [7]: 48.4%
- Percent Siglec-9 Surface Expression, THP-1 cells (% Siglec-9) [7]: 68.9%
- Percent Siglec-9-Fc Binding [8]: 97.8%
- Percent Siglec-9 Surface Expression, Macrophages (% Siglec-9) [9]: 34.2%
- Percent Siglec-9 Surface Expression, Microglia (% Siglec-9) [9]: 54.7%
- Kd [10]: 9 nM
B2: anti-Siglec-9 antibody 7H12 (antibody, V domains shown)
VH: QVQLQQSGAEVVKPGASVKLSCKAFGYTFTSYWMHWVKQRPGQGLEWIGEINPRDGVSNCNEKFTSKATLTVDTSSNTAYMQLNNLTSEDSAVYYCTIWEDYFDYWGQGTTLTVST
VL: NVZMTQTPLTLSVTLGQPASISCKSSQSLLYTNGKTYLNWLLQRPGQSPKLLIYLVSKLESGVPDRFSGSGSGTDFTLKINRVEAEDLGVYFCLQAPHFPLTFGGGTKLEMK
notes: the asterisk is not explained; the printed VL holds a 'Z' at position 3

- % Positive [4]: 97.8%
- MFI [4]: 646
- % Positive [5]: 98.7%
- MFI [5]: 621
- % Positive [6]: 75.9%
- MFI [6]: 310
- Percent Siglec-9 Surface Expression, DCs (% Siglec-9) [7]: 39.2%
- Percent Siglec-9 Surface Expression, Monocytes (% Siglec-9) [7]: 31.2%
- Percent Siglec-9 Surface Expression, THP-1 cells (% Siglec-9) [7]: 61.6%
- Percent Siglec-9-Fc Binding [8]: 97.8%
- Percent Siglec-9 Surface Expression, Macrophages (% Siglec-9) [9]: 24.8%
- Percent Siglec-9 Surface Expression, Microglia (% Siglec-9) [9]: 27.5%
- Kd [11]: 2.7 nM
B3: anti-Siglec-9 antibody 5B1 (antibody, IgG1, V domains shown)
VH: B2 VH
VL: B2 VL with Z3V, F92Y, P97T, G105A, M111L
